“And” between values parts separate entries of the source, which are not always exact repeats. Equal values may be shown once. Read-outs that look alike come from different tables or passages of the source.
Tests used:
Assay in all cases: SPR
[1] = biological target: Recombinant human VEGFR-2 Fc chimera (human) (UniProt P35968)
[2] = biological target: Recombinant human VEGFR-1 Fc chimera (human) (UniProt P17948)
[3] = biological target: Recombinant human VEGFR-2 Fc chimera (human) (UniProt P35968); remark: listed apart in the source
[4] = biological target: Recombinant human VEGFR-2 Fc chimera (human) (UniProt P35968); remark: listed apart in the source
[5] = biological target: Recombinant human VEGFR-1 Fc chimera (human) (UniProt P17948); remark: listed apart in the source
[6] = biological target: Recombinant mouse neuropilin-1 (NRP-1 monomer) (mouse) (UniProt P97333)
UniProt P97333, sequence (P97333 22-856): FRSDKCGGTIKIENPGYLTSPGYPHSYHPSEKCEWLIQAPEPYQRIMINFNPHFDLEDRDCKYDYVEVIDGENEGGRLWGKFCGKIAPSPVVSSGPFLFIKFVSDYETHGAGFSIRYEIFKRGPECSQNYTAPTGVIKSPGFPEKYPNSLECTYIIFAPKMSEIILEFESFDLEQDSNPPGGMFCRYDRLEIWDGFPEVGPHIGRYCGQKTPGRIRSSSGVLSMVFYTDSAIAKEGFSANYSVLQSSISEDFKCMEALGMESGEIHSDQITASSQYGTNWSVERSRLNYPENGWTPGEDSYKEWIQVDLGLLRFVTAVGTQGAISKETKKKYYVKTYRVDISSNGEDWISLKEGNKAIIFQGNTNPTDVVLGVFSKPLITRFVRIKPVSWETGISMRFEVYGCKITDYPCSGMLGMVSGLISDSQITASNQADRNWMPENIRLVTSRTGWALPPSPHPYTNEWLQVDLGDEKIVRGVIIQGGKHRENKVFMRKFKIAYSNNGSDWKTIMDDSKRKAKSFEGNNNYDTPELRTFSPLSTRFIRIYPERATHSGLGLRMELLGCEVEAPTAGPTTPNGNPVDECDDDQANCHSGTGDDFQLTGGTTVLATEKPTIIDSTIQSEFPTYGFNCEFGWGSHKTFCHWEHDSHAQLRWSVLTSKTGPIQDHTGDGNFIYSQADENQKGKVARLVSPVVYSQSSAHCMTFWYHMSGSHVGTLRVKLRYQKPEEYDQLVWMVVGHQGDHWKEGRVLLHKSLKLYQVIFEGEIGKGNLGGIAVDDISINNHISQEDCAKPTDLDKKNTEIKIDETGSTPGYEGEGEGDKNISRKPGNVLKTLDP

[7] = biological target: Recombinant human VEGFR-2 Fc chimera (human) (UniProt P35968); remark: listed apart in the source
[8] = biological target: Recombinant human VEGFR-1 Fc chimera (human) (UniProt P17948); remark: listed apart in the source
[9] = biological target: Recombinant mouse neuropilin-1 (NRP-1 monomer) (mouse) (UniProt P97333); remark: listed apart in the source

UniProt P35968, sequence (P35968 20-764, change not shown): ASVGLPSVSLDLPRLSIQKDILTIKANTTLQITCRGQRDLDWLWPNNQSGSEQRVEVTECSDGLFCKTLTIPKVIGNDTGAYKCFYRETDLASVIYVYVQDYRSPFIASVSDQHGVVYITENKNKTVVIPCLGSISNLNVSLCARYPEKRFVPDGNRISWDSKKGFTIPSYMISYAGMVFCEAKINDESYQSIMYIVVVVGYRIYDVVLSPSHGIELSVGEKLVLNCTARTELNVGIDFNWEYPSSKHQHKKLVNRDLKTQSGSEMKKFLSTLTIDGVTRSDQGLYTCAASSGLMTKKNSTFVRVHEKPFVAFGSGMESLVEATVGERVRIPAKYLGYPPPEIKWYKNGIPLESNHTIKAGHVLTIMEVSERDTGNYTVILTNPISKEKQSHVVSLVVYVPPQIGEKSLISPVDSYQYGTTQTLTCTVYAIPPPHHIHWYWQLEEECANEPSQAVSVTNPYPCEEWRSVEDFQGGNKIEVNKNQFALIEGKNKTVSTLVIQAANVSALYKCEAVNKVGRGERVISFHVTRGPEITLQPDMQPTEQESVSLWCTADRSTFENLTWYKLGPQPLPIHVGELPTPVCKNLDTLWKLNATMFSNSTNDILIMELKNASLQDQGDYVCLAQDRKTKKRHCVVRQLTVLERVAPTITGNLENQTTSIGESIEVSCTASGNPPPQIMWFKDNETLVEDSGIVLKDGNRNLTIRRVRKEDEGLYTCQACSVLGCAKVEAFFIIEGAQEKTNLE
UniProt P17948, sequence (P17948 27-758, change not shown): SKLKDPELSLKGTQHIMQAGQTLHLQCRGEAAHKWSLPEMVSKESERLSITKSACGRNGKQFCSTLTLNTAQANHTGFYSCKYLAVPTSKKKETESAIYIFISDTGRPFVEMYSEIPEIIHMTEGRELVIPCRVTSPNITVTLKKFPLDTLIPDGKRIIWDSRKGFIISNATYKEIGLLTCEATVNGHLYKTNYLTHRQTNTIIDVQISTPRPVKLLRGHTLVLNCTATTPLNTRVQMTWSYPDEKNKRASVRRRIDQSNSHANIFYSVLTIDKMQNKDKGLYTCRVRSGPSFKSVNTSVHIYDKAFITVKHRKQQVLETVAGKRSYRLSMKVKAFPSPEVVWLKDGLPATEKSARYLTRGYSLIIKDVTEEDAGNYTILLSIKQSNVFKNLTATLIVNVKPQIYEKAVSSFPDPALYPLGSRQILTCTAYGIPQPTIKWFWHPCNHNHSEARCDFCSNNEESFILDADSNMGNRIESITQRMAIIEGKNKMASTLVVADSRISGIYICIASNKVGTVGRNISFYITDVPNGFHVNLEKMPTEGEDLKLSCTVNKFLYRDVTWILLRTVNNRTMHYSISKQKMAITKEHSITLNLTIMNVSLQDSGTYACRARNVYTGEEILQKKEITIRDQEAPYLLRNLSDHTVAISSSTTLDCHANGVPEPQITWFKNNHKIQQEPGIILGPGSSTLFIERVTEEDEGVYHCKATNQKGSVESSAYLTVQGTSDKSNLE

Substance	Kd [1]	kon [1]	Kd [2]	koff [2]	kon [2]	kon [3]	Kd [4]	Kd [5]	koff [1]	Kd [6]	koff [6]	kon [6]	Kd [7]	Kd [8]	Kd [9]
Recombinant human VEGF121 (ligand)	5.5 nM	5.47e+06 M⁻¹ s⁻¹	6.2 nM	0.0088 s⁻¹	1.43e+06 M⁻¹ s⁻¹	547000 M⁻¹ s⁻¹	17 nM	7.2 nM	–	–	–	–	–	–	–
Recombinant human VEGF165 (ligand)	8.6 nM	1.76e+06 M⁻¹ s⁻¹	0.196 nM	0.000569 s⁻¹ and 0.000592 s⁻¹	2.91e+06 M⁻¹ s⁻¹	–	–	–	0.0151 s⁻¹	25 nM	0.065 s⁻¹	2.64e+06 M⁻¹ s⁻¹	18 nM	3.7 nM	28 nM

Source: PMC6262836
